The target in experiment [1] is HLA A2 on RMA-S/A2 cells (human). Briefly: BB7.2 staining of RMA-S/A2 cells without peptide (peptide-free control); FIG 2(i).
The target is the same in experiment [2]. Briefly: BB7.2 staining of RMA-S/A2 cells without peptide (peptide-free control); FIG 1(i).
Experiment [3] shares this target. Briefly: BB7.2 staining of RMA-S/A2 cells without peptide (peptide-free control); FIG 3(i).

“anti-A2 specific BB7.2 monoclonal antibody”: the figures for the Mean 2 in experiment [1], in experiment [2] and in experiment [3] were 311, 380 and 282, respectively. Further, the Δ Mean in experiment [1] is 154; in experiment [2] it was 193; in experiment [3], 151.

For the origin of these results see US20050152926A1.
